One may read the stoichiometry N as a count of units in the complex or per binding partner. One may read the Kd as a measure of binding affinity in units of concentration.

B2: His-MCAK_(S715E), full length (natural protein, human, UniProt Q99661 1-725, looked up)
chain: MAMDSSLQARLFPGLAIKIQRSNGLIHSANVRTVNLEKSCVSVEWAEGGATKGKEIDFDDVAAINPELLQLLPLHPKDNLPLQENVTIQKQKRRSVNSKIPAPKESLRSRSTRMSTVSELRITAQENDMEVELPAAANSRKQFSVPPAPTRPSCPAVAEIPLRMVSEEMEEQVHSIRGSSSANPVNSVRRKSCLVKEVEKMKNKREEKKAQNSEMRMKRAQEYDSSFPNWEFARMIKEFRATLECHPLTMTDPIEEHRICVCVRKRPLNKQELAKKEIDVISIPSKCLLLVHEPKLKVDLTKYLENQAFCFDFAFDETASNEVVYRFTARPLVQTIFEGGKATCFAYGQTGSGKTHTMGGDLSGKAQNASKGIYAMASRDVFLLKNQPCYRKLGLEVYVTFFEIYNGKLFDLLNKKAKLRVLEDGKQQVQVVGLQEHLVNSADDVIKMIDMGSACRTSGQTFANSNSSRSHACFQIILRAKGRMHGKFSLVDLAGNERGADTSSADRQTRMEGAEINKSLLALKECIRALGQNKAHTPFRESKLTQVLRDSFIGENSRTCMIATISPGISSCEYTLNTLRYADRVKELSPHSGPSGEQLIQMETEEMEACSNGALIPGNLSKEEEELSSQMSSFNEAMTQIRELEEKAMEELKEIIQQGPDWLELSEMTEQPDYDLETFVNKAESALAQQAKHFSALRDVIKALRLAMQLEEQAERQISSKKRPQ
notes: MCAK (Kif2c), human, residues 1-725, full length; also called full-length MCAK_(S715E); source: Sf9 (baculovirus), purified

Data set [1] concerns the molecule itself. The data set can be described thus: SEC; gel filtration of full-length MCAK proteins alone; elution compared with wild type full-length MCAK.
The target of data set [2] is T1, His-MCAK motor region with the neck linker region (M) (human, UniProt Q99661 183-583).
T1 construct: MCAK (Kif2c), human, neck linker region and motor region; the methods state residues 183-583, the results state 181-583; Cloned in pET3aTr; also called motor domain; MCAK motor domain; source: E. coli BL21(DE3) Codon plus, purified (Ni-NTA, gel filtration)
The data set can be described thus: pull-down; resin-based binding assay: GST-CT or GST-CT point mutants (GST as a control) on glutathione agarose beads; purified His-M, His-NM or cleaved CT domain added; Coomassie-stained gel. To be noted: both partners purified.

The target in data set [3] is T1, His-MCAK motor region with the neck …. The data set can be described thus: SEC-MALS; motor domain with CT domain; Superdex 200 10/300 GL; 2 mg/ml in 100 mM HEPES, pH 7.2, 150 mM NaCl. Conditions: both partners purified. On the technique in general: Size exclusion chromatography separates by hydrodynamic size, large species first.
Data set [4] has as its target B2. The data set can be described thus: co-sedimentation; competition: 100 nM full-length MCAK_(S715E) with 2 μM taxol-stabilized microtubules and increasing concentration of cleaved free CT domain; western blot. To be noted: both partners purified.
Data set [5] has as its target T1, His-MCAK motor region with the neck …. Description: other fluorescence titration; intrinsic tryptophan/aromatic fluorescence (excitation 295 and 280 nm) of 1 μM motor domain, CT domain titrated 0 to 15,660 nM; 25°C; 100 mM HEPES, pH 7.4, 150 mM NaCl; motor pre-treated with EDTA to remove ADP. Conditions: both partners purified.
Data set [6] shares this target. Description: SEC; analytical gel filtration of the motor with GST-CT_(E712C) under oxidizing conditions; fractions on Coomassie-stained SDS-PAGE. Conditions: both partners purified.

B1: His-MCAK (1-725), full-length MCAK (natural protein, human, UniProt Q99661 1-725, looked up)
chain: MAMDSSLQARLFPGLAIKIQRSNGLIHSANVRTVNLEKSCVSVEWAEGGATKGKEIDFDDVAAINPELLQLLPLHPKDNLPLQENVTIQKQKRRSVNSKIPAPKESLRSRSTRMSTVSELRITAQENDMEVELPAAANSRKQFSVPPAPTRPSCPAVAEIPLRMVSEEMEEQVHSIRGSSSANPVNSVRRKSCLVKEVEKMKNKREEKKAQNSEMRMKRAQEYDSSFPNWEFARMIKEFRATLECHPLTMTDPIEEHRICVCVRKRPLNKQELAKKEIDVISIPSKCLLLVHEPKLKVDLTKYLENQAFCFDFAFDETASNEVVYRFTARPLVQTIFEGGKATCFAYGQTGSGKTHTMGGDLSGKAQNASKGIYAMASRDVFLLKNQPCYRKLGLEVYVTFFEIYNGKLFDLLNKKAKLRVLEDGKQQVQVVGLQEHLVNSADDVIKMIDMGSACRTSGQTFANSNSSRSHACFQIILRAKGRMHGKFSLVDLAGNERGADTSSADRQTRMEGAEINKSLLALKECIRALGQNKAHTPFRESKLTQVLRDSFIGENSRTCMIATISPGISSCEYTLNTLRYADRVKELSPHSGPSGEQLIQMETEEMEACSNGALIPGNLSKEEEELSSQMSSFNEAMTQIRELEEKAMEELKEIIQQGPDWLELSEMTEQPDYDLETFVNKAESALAQQAKHFSALRDVIKALRLAMQLEEQASRQISSKKRPQ
notes: MCAK (Kif2c), human, residues 1-725, full length; Cloned in the pFL vector; also called wild type MCAK; Kif2c; source: Sf9 (baculovirus), purified
In the case of B1, the binding result in data set [1] is listed as “binds”.
Still for that read-out and setting: with B2 the entry was “binds”.

B3: His-MCAK_(E712C), full length (natural protein, human, UniProt Q99661 1-725, looked up)
chain: MAMDSSLQARLFPGLAIKIQRSNGLIHSANVRTVNLEKSCVSVEWAEGGATKGKEIDFDDVAAINPELLQLLPLHPKDNLPLQENVTIQKQKRRSVNSKIPAPKESLRSRSTRMSTVSELRITAQENDMEVELPAAANSRKQFSVPPAPTRPSCPAVAEIPLRMVSEEMEEQVHSIRGSSSANPVNSVRRKSCLVKEVEKMKNKREEKKAQNSEMRMKRAQEYDSSFPNWEFARMIKEFRATLECHPLTMTDPIEEHRICVCVRKRPLNKQELAKKEIDVISIPSKCLLLVHEPKLKVDLTKYLENQAFCFDFAFDETASNEVVYRFTARPLVQTIFEGGKATCFAYGQTGSGKTHTMGGDLSGKAQNASKGIYAMASRDVFLLKNQPCYRKLGLEVYVTFFEIYNGKLFDLLNKKAKLRVLEDGKQQVQVVGLQEHLVNSADDVIKMIDMGSACRTSGQTFANSNSSRSHACFQIILRAKGRMHGKFSLVDLAGNERGADTSSADRQTRMEGAEINKSLLALKECIRALGQNKAHTPFRESKLTQVLRDSFIGENSRTCMIATISPGISSCEYTLNTLRYADRVKELSPHSGPSGEQLIQMETEEMEACSNGALIPGNLSKEEEELSSQMSSFNEAMTQIRELEEKAMEELKEIIQQGPDWLELSEMTEQPDYDLETFVNKAESALAQQAKHFSALRDVIKALRLAMQLECQASRQISSKKRPQ
notes: MCAK (Kif2c), human, residues 1-725, full length; Without DTT a disulphide between Cys712 and Cys287 is intended; also called full-length MCAK_(E712C); source: Sf9 (baculovirus), purified
In the case of B3, in data set [1], the binding result is recorded as “binds”.

B4: GST-CT_(S715A) domain (domain or fragment, human, UniProt Q99661 700-725, looked up)
chain: VIKALRLAMQLEEQAARQISSKKRPQ
notes: MCAK (Kif2c) CT domain, human, residues 700-725 as stated (the printed primers of the parent encode 701-725); source: E. coli BL21(DE3) Codon plus, purified (glutathione-sepharose, gel filtration)
Take B4: the binding result in data set [2] is “binds”.

B5: MCAK C-terminal tail (CT) domain, GST cleaved and removed (peptide, UniProt Q99661 700-725, looked up)
chain: VIKALRLAMQLEEQASRQISSKKRPQ
notes: MCAK (Kif2c) C-terminal tail (CT domain), human, residues 700-725 as stated; also called free CT domain; C terminus; source: E. coli BL21(DE3) Codon plus, purified as GST fusion, GST cleaved with GST-3C protease and removed
On to B5, for which the “stoichiometry N” value in data set [3] was 0.5 CT domain per motor domain. The binding result in data set [4] is reported as “binds”. In addition, the Kd in data set [5] was about 1.1 µM.

B6: GST-CT_(E712C) domain (domain or fragment, human, UniProt Q99661 700-725, looked up)
chain: VIKALRLAMQLECQASRQISSKKRPQ
notes: MCAK (Kif2c) CT domain, human, residues 700-725 as stated (the printed primers of the parent encode 701-725); Designed to form a disulphide bridge with Cys287 of the motor domain without DTT; source: E. coli BL21(DE3) Codon plus, purified (glutathione-sepharose, gel filtration)
As to B6, the “stoichiometry N” value in data set [6] turned out to be 0.5 CT domain per motor.

B7: GST-CT_(I718A) domain (domain or fragment, human, UniProt Q99661 700-725, looked up)
chain: VIKALRLAMQLEEQASRQASSKKRPQ
notes: as for B4
Turning to B7, the binding result in data set [2] is reported as “binds”.

B8: GST-CT_(R716A) domain (domain or fragment, human, UniProt Q99661 700-725, looked up)
chain: VIKALRLAMQLEEQASAQISSKKRPQ
notes: as for B4
For B8, in data set [2], the binding result is listed as “binds”.

The record behind these values is PMC4443670, “The C-terminal region of the motor protein MCAK controls its structure and activity through a conformational switch” (eLife, 2015).
